Target: insulin receptor (purified IR, consisting of α and β subunits) (human (cloned from HEK293T cells)) (UniProt P06213)
Experiment: SPR

Kd: 3.33 µM
Substance: HtB-mNG (insulin B chain fused to mNeonGreen) (domain or fragment)
